Patent US20240076386A1 (Pfizer, published 2024)

Assays:
[1] = target: T1, cynomolgus monkey E-selectin, cell-surface expressed (cynomolgus monkey, UniProt P16581 22-610 (human entry)); assay: flow cytometry, CHO cells, 6 experiments
T1 construct: also called CHO-cynomolgus monkey E-selectin cells; cynomolgus monkey CHO-E
T1 chain: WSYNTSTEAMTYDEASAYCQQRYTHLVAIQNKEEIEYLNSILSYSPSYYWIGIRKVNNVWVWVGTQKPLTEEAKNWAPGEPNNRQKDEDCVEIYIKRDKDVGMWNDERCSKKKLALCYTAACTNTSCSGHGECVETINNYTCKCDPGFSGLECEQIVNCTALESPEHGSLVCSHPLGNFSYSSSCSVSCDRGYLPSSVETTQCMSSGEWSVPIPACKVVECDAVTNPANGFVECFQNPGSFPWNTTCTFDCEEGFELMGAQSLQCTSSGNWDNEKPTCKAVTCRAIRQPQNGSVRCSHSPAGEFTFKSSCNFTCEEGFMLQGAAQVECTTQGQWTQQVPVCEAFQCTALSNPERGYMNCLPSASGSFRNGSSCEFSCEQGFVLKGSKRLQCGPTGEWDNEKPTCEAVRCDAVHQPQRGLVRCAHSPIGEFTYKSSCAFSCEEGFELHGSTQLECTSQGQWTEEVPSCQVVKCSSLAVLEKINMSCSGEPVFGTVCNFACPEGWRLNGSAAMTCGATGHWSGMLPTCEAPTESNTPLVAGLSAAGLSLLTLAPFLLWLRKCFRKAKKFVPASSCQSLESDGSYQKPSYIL
Procedure: Binding studies with CHO cells were performed in duplicate using two rows of a 96-well round bottom plate, whereas, binding studies with primary endothelial cells were performed in a single row of a 96-well V-bottom plate. The plates were centrifuged at 300×g for 2 minutes at 4° C. and the cells were resuspended and blocked by incubation in the CHO buffer for 10 minutes on wet ice. After incubation, the cells were centrifuged at 300×g for 2 minutes at 4° C. to remove the buffer. […] After incubation with the antibody, the cells were washed three times by centrifugation at 300×g for 1 minute at 4° C. and resuspended in cold CHO buffer. The washed cells were resuspended and incubated with 100 μL of 1:1000 dilution of AlexaFluor647-conjugated goat anti-human F(ab′)₂ Fragment (Fcγ fragment specific antibody, [Jackson Innnnunoresearch, 109-606-170] for 45 minutes (CHO cells) or 30 minutes (endothelial cells) on wet ice. The cells were washed three or four times prior to resuspension in CHO buffer for flow cytometric analysis. A Becton Dickinson LSRFortessa instrument using 640 nanometer laser line was used to acquire cell fluorescence data. Geometric mean fluorescence of cells was analyzed by FlowJo software package (FlowJo, LLC) and plotted against antibody concentration. […]

[2] = target: T2, human E-selectin, cell-surface expressed (human, UniProt P16581 22-610); assay: neutralization of sialyl Lewis A ligand binding, CHO cells, competition ELISA
T2 construct: also called CHO-human E-selectin cells; human CHO-E
T2 sequence: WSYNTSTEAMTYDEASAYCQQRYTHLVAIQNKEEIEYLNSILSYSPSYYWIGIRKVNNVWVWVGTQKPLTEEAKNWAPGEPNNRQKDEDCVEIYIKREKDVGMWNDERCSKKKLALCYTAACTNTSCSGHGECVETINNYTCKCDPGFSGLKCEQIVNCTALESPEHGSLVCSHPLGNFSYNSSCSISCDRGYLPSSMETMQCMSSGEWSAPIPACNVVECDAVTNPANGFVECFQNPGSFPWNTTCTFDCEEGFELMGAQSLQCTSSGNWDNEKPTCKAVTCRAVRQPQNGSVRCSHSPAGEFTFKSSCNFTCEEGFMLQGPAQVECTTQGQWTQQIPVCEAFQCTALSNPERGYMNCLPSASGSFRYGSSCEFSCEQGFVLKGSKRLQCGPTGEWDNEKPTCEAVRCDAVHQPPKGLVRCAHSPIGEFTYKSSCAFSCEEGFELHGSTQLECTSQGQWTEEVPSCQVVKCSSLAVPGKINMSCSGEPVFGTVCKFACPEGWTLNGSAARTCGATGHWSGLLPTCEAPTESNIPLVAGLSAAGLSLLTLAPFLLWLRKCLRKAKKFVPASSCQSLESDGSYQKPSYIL
Procedure: (§1) In a static ligand cellular adhesion assay, horse radish peroxidase (HRP) conjugated E-selectin ligand (sialyl Lewis antigen) and E-selectin antibodies compete for binding to human or cynomolgus E-selectin expressed on Chinese hamster ovary (CHO) cells. The ability of anti-E-selectin antibodies to neutralize ligand binding was assessed in a static neutralization assay using a competition enzyme-linked immunosorbent assay (ELISA) to evaluate the neutralization of the sialyl Lewis antigen to Chinese hamster ovary cells (CHO) engineered to express human or cynomolgus monkey E-selectin.
(§2) CHO cells expressing E-selectin were seeded at 12,500 cells per well into a 96 well tissue culture plate and incubated at 37° C., 5% CO₂ for 48 hours to form a confluent monolayer. Plates were subsequently washed twice with 200 μL of calcium magnesium free PBS. Anti-E-selectin antibodies or an IgG1 isotype control (IgG control) were added to the assay in the presence of a small synthetic conjugate of biotinylated, sialyl Lewis A polyacrylamide (Carbosynth LLC, OS45446) or sialyl Lewis X polyacrylamide (Glycotech, 01-045) with streptavidin/horseradish peroxidase (100 μL total) and incubated at 37° C., 5% CO₂ for 2 hours. […] Reactions were stopped using 2 M of sulfuric acid and absorbance was read at 450 nm (Spectramax M5e). Data were analyzed and graphed using GraphPad Prism software (Version 8.0.2).

[3] = target: T1, cynomolgus monkey E-selectin, …; assay: as above
Procedure: as §1, §2

EC50 [1]: 0.75 to 1.37 nM | IC50 [2]: 1.88 to 2.89 nM | IC50 [3]: 1.47 to 2.65 nM
B1: optimized anti-E-selectin antibody 1444 (antibody, human IgG1, kappa, V domains shown)
VH: EVQLVESGGGLVQPGGSLRLSCAASGYAIRSAYMHWVRQAPGKGLEWVARIDPANGNTIYVDSVTGRFTISADNAKNSAYLQMNSLRAEDTAVYYCAMDLYSTSEYWGQGTLVTVSS
VL: DIQMTQSPSSLSASVGDRVTITCKTSQNIERYLNWYQQKPGKAPKLLIYAASSLQSGVPSRFSGSGSGTDFTLTISSLQPEDFATYFCLQDNAWPLTFGQGTKVEIKR
notes: effector-null human IgG1, kappa
